US7901879B2, “Lactoferrin in the treatment of malignant neoplasms and other hyperproliferative diseases” (Agennix Incorporated, priority 2002, dated 2011)
“And” between values parts separate entries of the source, which are not always exact repeats. Identical values can stand only once. Marks after values point to notes of the source that are not given here.

Legend:
[1] = system: NK-activity against YAC targets; experiment: Ex vivo NK activity of spleen NK cells against YAC targets (LDH release) after oral rhLF; assay type: in vivo, Balb/c naïve mice; details: for % Cytotoxicity Increased over ctrl: rhLF minus placebo; for % Cytotoxicity Final: oral 300 mg/kg/day 3 days
Experimental: Balb/c naïve mice were treated orally with rhLF or placebo once a day for 3 days (see Table 4).
(§1) On day 4, mice were sacrificed and spleens were collected. NK cells were separated using a magnetic bead cell sorting assay (MACS anti-NK-DX5) and counted. Cells were then tested in vitro for NK-activity against YAC targets using a lactate dehydrogenase (LDH) release test.
as §1, with “Balb/c naïve mice were treated orally with rhLF or placebo once a” for “On”, “for 3 days. One day later (day 4),” for “4,”, “spleens” for “spleens were”

[2] = system: murine squamous carcinoma cell line (SCCVII); experiment: SCCVII tumor growth, oral rhLF and/or radiotherapy (Example 9); assay type: in vivo, immunocompetent C3H mice
Experimental: A murine squamous carcinoma cell line (SCCVII) was injected into the floor of mouth through the neck skin of immunocompetent C3H mice (Day 0). […] Tumors were measured in three dimensions with calipers.
Tumor-bearing mice were randomized into six groups receiving rhLF (200 mg/Kg) and/or radiotherapy as described below. RhLF (4 mg; 200 mg/kg) was administered by oral gavage once daily for 8 days on days 5 through 12. Radiotherapy was administered as single dose of 2 Gray given at the beginning (day 5) or at during (day 8) rhLF-therapy. Animals were sacrificed on day 14 post-treatment and the residual tumor masses were measured and processed for later additional analyses.

B1: Recombinant human lactoferrin (protein, UniProt P02788 20-710, looked up)
Lactotransferrin: GRRRSVQWCAVSQPEATKCFQWQRNMRKVRGPPVSCIKRDSPIQCIQAIAENRADAVTLDGGFIYEAGLAPYKLRPVAAEVYGTERQPRTHYYAVAVVKKGGSFQLNELQGLKSCHTGLRRTAGWNVPIGTLRPFLNWTGPPEPIEAAVARFFSASCVPGADKGQFPNLCRLCAGTGENKCAFSSQEPYFSYSGAFKCLRDGAGDVAFIRESTVFEDLSDEAERDEYELLCPDNTRKPVDKFKDCHLARVPSHAVVARSVNGKEDAIWNLLRQAQEKFGKDKSPKFQLFGSPSGQKDLLFKDSAIGFSRVPPRIDSGLYLGSGYFTAIQNLRKSEEEVAARRARVVWCAVGEQELRKCNQWSGLSEGSVTCSSASTTEDCIALVLKGEADAMSLDGGYVYTAGKCGLVPVLAENYKSQQSSDPDPNCVDRPVEGYLAVAVVRRSDTSLTWNSVKGKKSCHTAVDRTAGWNIPMGLLFNQTGSCKFDEYFSQSCAPGSDPRSNLCALCIGDEQGENKCVPNSNERYYGYTGAFRCLAENAGDVAFVKDVTVLQNTDGNNNEAWAKDLKLADFALLCLDGKRKPVTEARSCHLAMAPNHAVVSRMDKVERLKQVLLHQQAKFGRNGSDCPDKFCLFQSETKNLLFNDNTECLARLHGKTTYEKYLGPQYVAGITNLKKCSTSPLLEACEFLRK
notes: human lactoferrin produced recombinantly
Question: How did the “relative increase of NK activity over placebo-treated animals” value ([1]; 30:1 E:T ratio, p<0.05) turn out when B1 was run?
Answer: 243%

Question: What about the “% Cytotoxicity Increased over ctrl” value ([1]; E:T ratio 3.7:1) of the same molecule?
Answer: 0%

Question: What about the “% Cytotoxicity Increased over ctrl” value ([1]; E:T ratio 7.5:1) of the same molecule?
Answer: 0%

Question: What about the “% Cytotoxicity Increased over ctrl” value ([1]; E:T ratio 15:1) of the same molecule?
Answer: 1.3%

Question: What about the “% Cytotoxicity Increased over ctrl” value ([1]; E:T ratio 30:1) of the same molecule?
Answer: 7** %

Question: And the “% Cytotoxicity Final” value ([1]; E:T ratio 3.7:1)?
Answer: 0%

Question: What about the “% Cytotoxicity Final” value ([1]; E:T ratio 7.5:1) of the same molecule?
Answer: 0.44%

Question: What about the “% Cytotoxicity Final” value ([1]; E:T ratio 15:1) of the same molecule?
Answer: 4.12%

Question: What about the “% Cytotoxicity Final” value ([1]; E:T ratio 30:1, 300 mg/kg/day) of the same molecule?
Answer: 10% and 9.81%

Question: What about the “% Cytotoxicity Final” value ([1]; E:T ratio 30:1, listed as RhLF, 300 mg/kg/day) of the same molecule?
Answer: 9.81%

Question: What about the “Inhibition Relative to Placebo” value ([2]; both rhLF/Rad groups pooled (D/F)) of the same molecule?
Answer: 67%

Question: And the “Inhibition Relative to Placebo” value ([2]; rhLF 200 mg/kg oral days 5-12 plus radiation 2 Gray on day 5)?
Answer: 68%

Question: And the “Inhibition Relative to Placebo” value ([2]; rhLF 200 mg/kg oral days 5-12 plus radiation 2 Gray on day 8)?
Answer: 66%

Question: And the “Inhibition Relative to Placebo” value ([2]; rhLF alone 200 mg/kg oral once daily days 5-12)?
Answer: 54%

Question: What about the “increase in TGI over monotherapy with rhLF” value ([2]; rhLF plus radiation, P<0.05) of the same molecule?
Answer: 28%

Question: And the “increase in TGI over monotherapy with radiation” value ([2]; rhLF plus radiation, P=0.1207)?
Answer: 15%
